The values that follow come from patent US20140142103, “Methods and Compositions for Modulating Rad51 and Homologous Recombination” (The University of Chicago, published 2014).

In this series the target is RecA (UniProt P0A7G6 P0A7G6:2-353). In words: FP; positive control; 10 mM Mg acetate, 2 mM ATP, 37 C. As to conditions: tags: New England Biolabs; label: 5' fluorescein. The method, then:
FIG. 2A, bottom: Purified RAD51 protein (wild type or mutant F86E) were serially diluted. RecA (New England Biolabs) was used as a positive control. Proteins were added to a 5′terminal fluorescein conjugated oligonucleotide (45 bases of dT) at a 1 μM nucleotide concentration. The mixture was incubated at 37° C. for 30 minutes in 384-well plates containing a reaction buffer (30 mM Tris/acetate pH 7.5, 10 mM Mg²⁺/acetate, 2 mM ATP, 0.1 mM DTT, 0.5 μM BSA). Fluorescence polarization was measured with a plate reader (filters: excitation=485 nm, emission=510 nm). FIG. 2B, top: Varying concentrations of 5′terminal fluorescein conjugated oligonucleotide were used to determine the threshold RAD51 concentration.
RAD51 filament formation can also be studied using oligonucleotides that are end-labeled with a fluorescent tag. Binding of proteins to this substrate DNA can be detected as an increase in anisotropy (or polarization) of the fluorescent tag. This method has been used to monitor the DNA-binding activity of yeast RAD51 (Kim et al., 2001) and RecA (Wittung et al., 1997; Ellouze et al., 1999), which is the […] homolog of RAD51. In this example, this method was modified so that very small sample volumes (30 μl) can be monitored in a high-throughput scale, using 384-well plates and a fluorescent plate reader. […]

Chain of RecA (P0A7G6 2-353, one chain of several): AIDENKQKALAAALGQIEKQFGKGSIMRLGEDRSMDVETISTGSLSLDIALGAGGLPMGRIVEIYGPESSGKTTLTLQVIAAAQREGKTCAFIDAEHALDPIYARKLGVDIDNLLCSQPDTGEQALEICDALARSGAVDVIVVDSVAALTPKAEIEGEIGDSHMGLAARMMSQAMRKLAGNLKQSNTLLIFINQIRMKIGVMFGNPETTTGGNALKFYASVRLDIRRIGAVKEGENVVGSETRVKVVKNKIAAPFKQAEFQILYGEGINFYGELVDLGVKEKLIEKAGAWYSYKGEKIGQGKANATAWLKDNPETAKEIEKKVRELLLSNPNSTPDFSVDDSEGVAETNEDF

B1: oligo dT45 (ssDNA)
DNA: TTTTTTTTTTTTTTTTTTTTTTTTTTTTTTTTTTTTTTTTTTTTT
For the molecule B1, the binding result is reported as “binds”.
